Measurements: publication PMC4643112, “Diversity of hydrolases from hydrothermal vent sediments of the Levante Bay, Vulcano Island (Aeolian archipelago) identified by activity-based metagenomics and biochemical characterization of new esterases and an arabinopyranosidase” (Applied Microbiology and Biotechnology, 2015)

Substrate: CCCC(=O)Oc1ccc([N+](=O)[O-])cc1
Assay: colorimetric p-nitrophenol release
Format: biochemical, Rhodothermus profundi
Conditions: 50 mM potassium phosphate pH 7.0, 0.1 % Triton X-100, standard assay, substrate varied 1-40 mM as printed

B1: LIPESV12_26 (Rhodothermus profundi) (protein)
chain: MPHPTIQTVDLAYRSYGTEGPPLLILHGLLGSSGNWHTLARNAFSPHFRVFALDLRGHGRSPHAHPIDYPTMAADVQAFMDRHHLESAHVLGHSMGGKVAMELALSAPERVRRLVVVDIAPRSYPARHRTILDALQAIDPARYANRQAIDQALATYVPEAPIRQFLLKNLLYNPATRRYTWQVDLDGLVRYYDRINAAITDGRQFTGPVLFVRGARSDYLTEADWPTIRQLFPDACLATIPEAGHWVHADAPEAFAHLVLAFLQEKSGCVSSSKS
notes: full length, 275 residues, His6-tagged (pET-46c Ek/LIC), E. coli BL21(DE3); primers (translated) start MPHPTIQ, end VSSSKS; catalytic S94, D218, H245
**Q.** B1 was tested. Which Km did it give?
**A.** 100 µM
